From the supplement of paper PMC5998384

Assays:
HeLa Kyoto [1] = experiment: thermal stability score vs G1/S (z-score of summed log2 fold changes over temperatures); higher = more thermally stable than in G1/S
HeLa Kyoto [2] = experiment: solubility change mitosis vs G1/S (difference of NP-40 vs SDS log2 ratios) (log2 ratio difference); higher = more soluble in mitosis
HeLa Kyoto [3] = experiment: melting temperature (median over replicates), in situ; higher = more thermally stable
HeLa Kyoto [4] = experiment: solubility in G1/S (NP-40 vs SDS abundance) (log2 ratio); higher = more soluble; settings: cell cycle stage: G1/S
[5] = cell cycle stage: early G1 (4.5 h after nocodazole release)
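Wherever melting temperature (median over replicates), in situ is given: HeLa Kyoto cells synchronized by double thymidine or nocodazole block, proteins quantified by TMT10plex mass spectrometry, three independent biological replicates.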
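Wherever solubility change mitosis vs G1/S (difference of NP-40 vs SDS log2 ratios) is given: synchronized HeLa Kyoto cells (double thymidine block for G1/S, nocodazole release for mitosis), protein amounts in NP-40 versus SDS lysates quantified by mass spectrometry, three biological replicates.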
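Wherever solubility in G1/S (NP-40 vs SDS abundance) is given: HeLa Kyoto cells arrested at G1/S by double thymidine block, proteins quantified by TMT10plex mass spectrometry in mild NP-40 versus SDS extracts, three biological replicates.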
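Wherever thermal stability score vs G1/S (z-score of summed log2 fold changes over temperatures) is given: synchronized HeLa Kyoto cells, proteins quantified by TMT10plex mass spectrometry, three biological replicates, mitosis taken 0.5 h after nocodazole release, G1/S directly after double thymidine block.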

Sequence	thermal stability score (HeLa Kyoto [1]; [5])	thermal stability score (HeLa Kyoto [1]; cell cycle stage: mitosis)	solubility change mitosis (log2) (HeLa Kyoto [2])	melting temperature (HeLa Kyoto [3]; cell cycle stage: G1/S) [°C]	melting temperature (HeLa Kyoto [3]; cell cycle stage: mitosis) [°C]	solubility in G1/S (log2) (HeLa Kyoto [4])
MKKDVRILLVGEPRVGKTSLIMSLVSEEFPEEVPPRAEEITIPADVTPERVPTHIVDYSEAEQSDEQLHQEISQANVICIVYAVNNKHSIDKVTSRWIPLINERTDKDSRLPLILVGNKSDLVEYSSMETILPIMNQYTEIETCVECSAKNLKNISELFYYAQKAVLHPTGPLYCPEEKEMKPACIKALTRIFKISDQDNDGTLNDAELNFFQRICFNTPLAPQALEDVKNVVRKHISDGVADSGLTLKGFLFLHTLFIQRGRHETTWTVLRRFGYDDDLDLTPEYLFPLLKIPPDCTTELNHHAYLFLQSTFDKHDLDRDCALSPDELKDLFKVFPYIPWGPDVNNTVCTNERGWITYQGFLSQWTLTTYLDVQRCLEYLGYLGYSILTEQESQASAVTVTRDKKIDLQKKQTQRNVFRCNVIGVKNCGKSGVLQALLGRNLMRQKKIREDHKSYYAINTVYVYGQEKYLLLHDISESEFLTEAEIICDVVCLVYDVSNPKSFEYCARIFKQHFMDSRIPCLIVAAKSDLHEVKQEYSISPTDFCRKHKMPPPQAFTCNTADAPSKDIFVKLTTMAMYPHVTQADLKSSTFWLRASFGATVFAVLGFAMYKALLKQR [RHOT1]	-0.722	-1.26	-0.0628	52.8	52.5	-0.379
MAVPFVEDWDLVQTLGEGAYGEVQLAVNRVTEEAVAVKIVDMKRAVDCPENIKKEICINKMLNHENVVKFYGHRREGNIQYLFLEYCSGGELFDRIEPDIGMPEPDAQRFFHQLMAGVVYLHGIGITHRDIKPENLLLDERDNLKISDFGLATVFRYNNRERLLNKMCGTLPYVAPELLKRREFHAEPVDVWSCGIVLTAMLAGELPWDQPSDSCQEYSDWKEKKTYLNPWKKIDSAPLALLHKILVENPSARITIPDIKKDRWYNKPLKKGAKRPRVTSGGVSESPSGFSKHIQSNLDFSPVNSASSEENVKYSSSQPEPRTGLSLWDTSPSYIDKLVQGISFSQPTCPDHMLLNSQLLGTPGSSQNPWQRLVKRMTRFFTKLDADKSYQCLKETCEKLGYQWKKSCMNQVTISTTDRRNNKLIFKVNLLEMDDKILVDFRLSKGDGLEFKRHFLKIKGKLIDIVSSQKIWLPAT [CHEK1]	1.82	1.62	-0.07	51.7	51.9	0.104
MSRPSSVSPRQPAPGGGGGGGPSPCGPGGGGRAKGLKDIRIDEEVKIAVNIALERFRYGDQREMEFPSSLTSTERAFIHRLSQSLGLVSKSKGKGANRYLTVKKKDGSETAHAMMTCNLTHNTKHAVRSLIQRFPVTNKERTELLPKTERGNVFAVEAENREMSKTSGRLNNGIPQIPVKRGESEFDSFRQSLPVFEKQEEIVKIIKENKVVLIVGETGSGKTTQIPQFLLDDCFKNGIPCRIFCTQPRRLAAIAVAERVAAERRERIGQTIGYQIRLESRVSPKTLLTFCTNGVLLRTLMAGDSTLSTVTHVIVDEVHERDRFSDFLLTKLRDLLQKHPTLKLILSSAALDVNLFIRYFGSCPVIYIQGRPFEVKEMFLEDILRTTGYTNKEMLKYKKEKQQEEKQQTTLTEWYSAQENSFKPESQRQRTVLNVTDEYDLLDDGGDAVFSQLTEKDVNCLEPWLIKEMDACLSDIWLHKDIDAFAQVFHLILTENVSVDYRHSETSATALMVAAGRGFASQVEQLISMGANVHSKASNGWMALDWAKHFGQTEIVDLLESYSATLEFGNLDESSLVQTNGSDLSAEDRELLKAYHHSFDDEKVDLDLIMHLLYNICHSCDAGAVLIFLPGYDEIVGLRDRILFDDKRFADSTHRYQVFMLHSNMQTSDQKKVLKNPPAGVRKIILSTNIAETSITVNDVVFVIDSGKVKEKSFDALNFVTMLKMVWISKASAIQRKGRAGRCRPGICFRLFSRLRFQNMLEFQTPELLRMPLQELCLHTKLLAPVNCPIADFLMKAPEPPPALIVRNAVQMLKTIDAMDTWEDLTELGYHLADLPVEPHLGKMVLCAVVLKCLDPILTIACTLAYRDPFVLPTQASQKRAAMLCRKRFTAGAFSDHMALLRAFQAWQKARSDGWERAFCEKNFLSQATMEIIIGMRTQLLGQLRASGFVRARGGGDIRDVNTNSENWAVVKAALVAGMYPNLVHVDRENLVLTGPKEKKVRFHPASVLSQPQYKKIPPANGQAAAIKALPTDWLIYDEMTRAHRIANIRCCSAVTPVTILVFCGPARLASNALQEPSSFRVDGIPNDSSDSEMEDKTTANLAALKLDEWLHFTLEPEAASLLLQLRQKWHSLFLRRMRAPSKPWSQVDEATIRAIIAVLSTEEQSAGLQQPSGIGQRPRPMSSEELPLASSWRSNNSRKSSADTEFSDECTTAERVLMKSPSPALHPPQKYKDRGILHPKRGTEDRSDQSSLKSTDSSSYPSPCASPSPPSSGKGSKSPSPRPNMPVRYFIMKSSNLRNLEISQQKGIWSTTPSNERKLNRAFWESSIVYLVFSVQGSGHFQGFSRMSSEIGREKSQDWGSAGLGGVFKVEWIRKESLPFQFAHHLLNPWNDNKKVQISRDGQELEPLVGEQLLQLWERLPLGEKNTTD [YTHDC2]	-0.356	0.243	0.163	50.2	50	-0.57
MAAAWGSSLTAATQRAVTPWPRGRLLTASLGPQARREASSSSPEAGEGQIRLTDSCVQRLLEITEGSEFLRLQVEGGGCSGFQYKFSLDTVINPDDRVFEQGGARVVVDSDSLAFVKGAQVDFSQELIRSSFQVLNNPQAQQGCSCGSSFSIKL [ISCA2]	-1.26	-2.06	-0.123	51.6	53.4	0.276
MADLLGSILSSMEKPPSLGDQETRRKAREQAARLKKLQEQEKQQKVEFRKRMEKEVSDFIQDSGQIKKKFQPMNKIERSILHDVVEVAGLTSFSFGEDDDCRYVMIFKKEFAPSDEELDSYRRGEEWDPQKAEEKRKLKELAQRQEEEAAQQGPVVVSPASDYKDKYSHLIGKGAAKDAAHMLQANKTYGCVPVANKRDTRSIEEAMNEIRAKKRLRQSGEELPPTS [SPAG7]	-1.04	-1.5	-0.0144	53.1	55	0.68
MIHSLFLINCSGDIFLEKHWKSVVSQSVCDYFFEAQEKAADVENVPPVISTPHHYLISIYRDKLFFVSVIQTEVPPLFVIEFLHRVADTFQDYFGECSEAAIKDNVVIVYELLEEMLDNGFPLATESNILKELIKPPTILRSVVNSITGSSNVGDTLPTGQLSNIPWRRAGVKYTNNEAYFDVVEEIDAIIDKSGSTVFAEIQGVIDACIKLSGMPDLSLSFMNPRLLDDVSFHPCIRFKRWESERVLSFIPPDGNFRLISYRVSSQNLVAIPVYVKHSISFKENSSCGRFDITIGPKQNMGKTIEGITVTVHMPKVVLNMNLTPTQGSYTFDPVTKVLTWDVGKITPQKLPSLKGLVNLQSGAPKPEENPSLNIQFKIQQLAISGLKVNRLDMYGEKYKPFKGVKYVTKAGKFQVRT [AP3M1]	0.811	0.722	-0.0783	50.8	50.1	-0.0152
